Substitutions are numbered along the chain they refer to.
B1: KB-AT-002 (VHH)
VHH: QVQLVQSGGGLVQAGGSLRLSCAASGRTFNNNGMGWFRQAPGKEREFVAAISWSGGSTYYADSVKGRYIMSRDNAKNTVYLQMNSLKPEDTAVYYCAARTRYNSGLFSRNYDYWGQGTQVTVSS
notes: Monovalent anti-antithrombin single-domain antibody; also called sdAb KB-AT-002
B2: KB-AT-006 (VHH)
VHH: B1 VHH with V5Q, N30S, G55S, I69T, M70I, L106Y, S108T
notes: Monovalent anti-antithrombin single-domain antibody; also called sdAb KB-AT-006
B3: KB-AT-004 (VHH)
VHH: VQLQQSGGGLVQPGGSLRLSCAASAMTFSIRAWAWYRQAPGKQRELVASIGTGDITNYADSVKGRFTISRDNAKNTFYLQMNSLKPEDTAVYYCNGYRSTYAWGQGTQVTVSS
notes: Monovalent anti-antithrombin single-domain antibody; also called sdAb KB-AT-004
B4: KB-AT-001 (VHH)
VHH: QVQLQQSGGDLAQRGGSLRLSCAASGRTFRNYVMGWFRQAPGKDPEFIAGINRSGAITYYGDSVKGRFTISRDNAKNTVSLQMNSLEPEDTAVYYCAAGETTWSIRRDDYDYWGQGTQVTVSS
notes: Monovalent anti-antithrombin single-domain antibody; also called sdAb KB-AT-001
B5: KB-AT-005 (VHH)
VHH: EVQLVESGGGLVQPGGSLRLSCEASGRDFNDAALGWSRQVPGKARETVAMITSGGVRNYAETVKDRFTISRDNAKNTVYLDMNNLQPDDTGVYYCKADSFKGDYDTSWYLYWGQGTQVTVSS
notes: Monovalent anti-antithrombin single-domain antibody; also called sdAb KB-AT-005
B6: KB-AT-007 (VHH)
VHH: B4 VHH with D10G, A12V, R14A
notes: Monovalent anti-antithrombin single-domain antibody; same CDRs as KB-AT-001; also called sdAb KB-AT-007

Each binder was assayed against T1, porcine antithrombin (porcine) (assay: ELISA, sdAb coated, plasma 1/4, bound antithrombin probed with polyclonal anti-antithrombin; grade by OD).
T1 construct: Native protein in plasma diluted 1/4; also called porcine AT; antithrombin in porcine plasma
Procedure: (§1) sdAbs KB-AT-001, -002. -003, -004, -005, -006, and -007 were immobilized (10 microgram/ml) in 10 mM NaHCO₃, 50 mM Na2CO3 (pH 9.5) in a volume of 50 microliter in half-well microtiter plates (Greiner Bio-One, Les Ulis, France) for 16 h at 4° C. As a positive control, polyclonal anti-antithrombin antibodies (MATIII-EIA kit, Affinity biologicals, Ancaster Canada) were immobilized in a similar fashion. As a negative control, the anti-von Willebrand sdAb KB-VWF-006 was immobilized. After washing the wells three times with 100 microliter/well using Tris-buffered saline (pH 7.6) supplemented with 0.1% Tween-20 (TBS-T), wells were blocked with 100 microliter/well of TBS-T supplemented with 3% bovine serum albumin (BSA) for 30 min at 37° C. Wells were washed as described above, and subsequently the following plasma preparations (diluted ¼ in TBS-T/3% BSA, 100 microliter per well, 2 hours at 37° C.) were added to each of the immobilized sdAbs and both types of control wells: rabbit plasma, canine plasma, simian plasma, bovine plasma, porcine plasma, rat plasma, murine plasma and human plasma.
(§2) Wells were then washed three times with 100 microliter/well using TBS-T. Bound antithrombin was probed with peroxidase-labeled polyclonal anti-antithrombin antibodies (MATIII-EIA kit, Affinity biologicals, Ancaster Canada; diluted 1/100) for 2 hours at 37° C. with 50 microliter per well. Wells were then washed three times with 100 microliter/well using TBS-T. Residual peroxidase activity was detected by measuring peroxidase-mediated hydrolysis of 3,3′,5,5′-tetramethylbenzidine.
(§3) Negative binding (−) was defined as optical density (OD) being ≤0.1, moderate positive binding (+) was defined as OD being >0.1 and <0.5, strongly positive binding (++) was defined as OD being ≥0.5. […] All plasma preparations had moderate or strongly positive binding to the positive control (polyclonal anti-antithrombin antibodies).

OD [od]	Binder
≥ 0.5	B1
0.1 to 0.5	B2
0.1 to 0.5	B3

The binders below were run against T2, rat antithrombin (rat, UniProt Q8VHJ4) in the same assay as above.
T2 construct: Native protein in plasma diluted 1/4; also called rat AT; antithrombin in rat plasma
Procedure: as §1, §2, §3

OD [od]	Binder
≥ 0.5	B1
0.1 to 0.5	B2
0.1 to 0.5	B4
0.1 to 0.5	B3

Each binder was assayed against T3, rabbit antithrombin (rabbit) in the same assay as above.
T3 construct: Native protein in plasma diluted 1/4; also called rabbit AT; antithrombin in rabbit plasma
Procedure: as §1, §2, §3

OD [od]	Binder
≥ 0.5	B1
≥ 0.5	B2
0.1 to 0.5	B4

Each binder was assayed against T4, human antithrombin (human, UniProt P01008 33-464) in the same assay as above.
T4 construct: Serpin; the description says that AT consists of 432 amino acids; also called purified human antithrombin; AT
Procedure: as §1, §2, §3

T4 sequence (P01008 33-464 limits assumed): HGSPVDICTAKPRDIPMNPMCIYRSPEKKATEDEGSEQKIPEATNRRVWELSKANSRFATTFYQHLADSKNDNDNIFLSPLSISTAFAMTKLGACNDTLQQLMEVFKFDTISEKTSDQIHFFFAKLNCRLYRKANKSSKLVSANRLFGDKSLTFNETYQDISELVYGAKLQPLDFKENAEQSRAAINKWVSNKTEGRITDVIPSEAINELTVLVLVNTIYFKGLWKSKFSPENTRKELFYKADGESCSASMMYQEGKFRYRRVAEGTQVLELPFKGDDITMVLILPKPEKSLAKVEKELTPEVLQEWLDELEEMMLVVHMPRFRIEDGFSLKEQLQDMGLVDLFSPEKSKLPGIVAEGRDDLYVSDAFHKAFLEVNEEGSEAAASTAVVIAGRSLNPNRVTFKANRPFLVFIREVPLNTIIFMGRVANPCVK

OD [od]	Binder
≥ 0.5	B1
0.1 to 0.5	B2
0.1 to 0.5	B5
0.1 to 0.5	B4
0.1 to 0.5	B6
0.1 to 0.5	B3

What follows are binders tested against T5, simian antithrombin (simian) in the same assay as above.
T5 construct: Native protein in plasma diluted 1/4; also called simian AT; antithrombin in simian plasma
Procedure: as §1, §2, §3

OD [od]	Binder
≥ 0.5	B1
≥ 0.5	B2
0.1 to 0.5	B5
≥ 0.5	B4
≥ 0.5	B6
0.1 to 0.5	B3

These binders were tested against T6, murine antithrombin (mouse, UniProt P32261 33-465) in the same assay as above.
T6 construct: also called mouse antithrombin; murine AT
Procedure: as §1, §2, §3

T6 sequence (P32261 33-465 limits assumed): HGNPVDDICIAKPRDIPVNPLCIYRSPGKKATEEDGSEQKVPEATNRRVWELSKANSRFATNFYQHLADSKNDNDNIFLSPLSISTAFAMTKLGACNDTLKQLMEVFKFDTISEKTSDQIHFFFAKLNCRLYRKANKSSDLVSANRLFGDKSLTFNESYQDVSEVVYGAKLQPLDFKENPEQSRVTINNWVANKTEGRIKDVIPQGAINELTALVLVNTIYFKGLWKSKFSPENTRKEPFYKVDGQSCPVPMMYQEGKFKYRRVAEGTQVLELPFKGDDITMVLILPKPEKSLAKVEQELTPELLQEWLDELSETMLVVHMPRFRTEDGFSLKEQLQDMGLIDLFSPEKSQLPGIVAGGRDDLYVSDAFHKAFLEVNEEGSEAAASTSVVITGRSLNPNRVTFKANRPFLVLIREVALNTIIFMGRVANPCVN

OD [od]	Binder
≥ 0.5	B1
0.1 to 0.5	B2
0.1 to 0.5	B5
≥ 0.5	B4
0.1 to 0.5	B6
≥ 0.5	B3

The binders below were run against T7, bovine antithrombin (bovine, UniProt P41361 33-465) in the same assay as above.
T7 construct: Native protein in plasma diluted 1/4; also called bovine AT; antithrombin in bovine plasma
Procedure: as §1, §2, §3

T7 sequence (P41361 33-465): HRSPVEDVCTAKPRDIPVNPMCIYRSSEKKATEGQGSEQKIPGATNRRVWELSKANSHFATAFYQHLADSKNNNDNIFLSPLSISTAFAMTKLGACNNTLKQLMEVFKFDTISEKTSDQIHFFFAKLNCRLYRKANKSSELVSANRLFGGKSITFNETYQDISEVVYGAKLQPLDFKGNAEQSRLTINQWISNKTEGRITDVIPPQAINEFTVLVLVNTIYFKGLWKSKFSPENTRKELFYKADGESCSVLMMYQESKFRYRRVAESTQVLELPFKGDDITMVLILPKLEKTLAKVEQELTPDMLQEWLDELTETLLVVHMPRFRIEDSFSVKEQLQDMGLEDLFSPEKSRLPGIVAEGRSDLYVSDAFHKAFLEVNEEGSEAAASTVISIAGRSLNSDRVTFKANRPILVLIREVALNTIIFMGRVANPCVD

OD [od]	Binder
≥ 0.5	B1

These binders were tested against T8, canine antithrombin (canine) in the same assay as above.
T8 construct: Native protein in plasma diluted 1/4; also called canine AT; antithrombin in canine plasma
Procedure: as §1, §2, §3

OD [od]	Binder
≥ 0.5	B1
0.1 to 0.5	B2
0.1 to 0.5	B3

These binders were tested against T4, human antithrombin (assay: BLI (Octet-QK), sdAb coupled to sensor, antithrombin 12.5-50 ug/ml; apparent KD).
Procedure: The interaction between sdAbs KB-AT-001, KB-AT-002, KB-AT-003 and KB-AT-006 versus human antithrombin was further analyzed via biolayer-interferometry analysis using Octet-QK equipment in order to determine apparent dissociation constants (KD,app). To this end, sdAbs KB-AT-001, KB-AT-002, KB-AT-003 and KB-AT-006 were diluted in 0.1 M Mes (pH 5.0) to a concentration of 200 microgram/ml for coupling to EDC/NHS-activated amine-reactive biosensors (Fort6bio, Menlo Park, Calif., USA). Sensors were rehydrated in 0.2 ml 0.1 M MES, pH 5.0 for 300 sec. Sensors were then activated via incubation with 0.1 ml 0.2 M EDC/0.095 M NHS mixture for 300 sec and subsequently incubated with 0.1 ml sdAb-solution for 600 sec. […] Following this association phase, sensors were transferred to wells containing PBS-T and incubated for 900 sec, allowing dissociation of the antithrombin-sdAb complex. Obtained data were subsequently analyzed using Octet-QK data analysis software (Origin vs 4) to estimate KD,app.

Kd [nM]	Binder
4	B1
22	B2
14	B4

Each binder was assayed against T1, porcine antithrombin (assay: ELISA, sdAb coated, plasma 1/4, bound antithrombin probed with polyclonal anti-antithrombin).
Procedure: as §1, §2, §3

OD [od]	Binder
≤ 0.1	B5
≤ 0.1	B4
≤ 0.1	B6

Each binder was assayed against T2, rat antithrombin in the same assay as above.
Procedure: as §1, §2, §3

OD [od]	Binder
≤ 0.1	B5
≤ 0.1	B6

What follows are binders tested against T3, rabbit antithrombin in the same assay as above.
Procedure: as §1, §2, §3

OD [od]	Binder
≤ 0.1	B5
≤ 0.1	B6
≤ 0.1	B3

These binders were tested against T7, bovine antithrombin in the same assay as above.
Procedure: as §1, §2, §3

OD [od]	Binder
≤ 0.1	B2
≤ 0.1	B5
≤ 0.1	B4
≤ 0.1	B6
≤ 0.1	B3

These binders were tested against T8, canine antithrombin in the same assay as above.
Procedure: as §1, §2, §3

OD [od]	Binder
≤ 0.1	B5
≤ 0.1	B4
≤ 0.1	B6

These binders were tested against T4, human antithrombin (assay: cell-based or functional assay).

% antithrombin neutralization (thrombin amidolytic activity on S-2238, no heparin) [%]	Binder
65	B1
58	B2
57	B5
62	B4
61	B6
55	B3

Biological target: T4, human antithrombin
Experiment: cell-based or functional assay
Remark: another data set of the same source

percentage of neutralization of antithrombin-mediated factor Xa inhibition, with LMW-heparin [%]	percentage of neutralization of antithrombin-mediated thrombin inhibition, with unfractionated heparin [%]	Binder
< 15	< 5	B1
< 15	< 5	B2
< 15	< 5	B5
< 15	< 5	B4
< 15	< 5	B6
< 15	< 5	B3

The binders below were run against T4, human antithrombin (assay: ELISA: sdAb coated on the plate, antithrombin added in solution; the concentration is that of antithrombin).
Procedure: (§4) sdAbs recognizing antithrombin (KB-AT-001, -002, -003, -004, -005, -006, and -007) were immobilized (5 microgram/ml) in 10 mM NaHCO₃, 50 mM Na2CO3 (pH 9.5) in a volume of 50 microliter in half-well microtiter plates (Greiner Bio-One, Les Ulis, France) for 16 h at 4° C. After washing the wells three times with 100 microliter/well using Tris-buffered saline (pH 7.6) supplemented with 0.1% Tween-20 (TBS-T), wells were blocked with 100 microliter/well of TBS-T supplemented with 5% skimmed milk for 30 min at 37° C. Wells were washed as described above, and subsequently different concentrations of purified human antithrombin or murine antithrombin (0-5 micromolar diluted in Tris-buffered saline (pH 7.6) supplemented with 5% skimmed milk; 50 microliter/well) were added to each of the immobilized sdAbs and incubated for 2 hours. Wells were then washed three times with 100 microliter/well using TBS-T. Bound antithrombin was probed with peroxidase-labeled polyclonal rabbit anti-antithrombin antibodies (Diagnostica Stago, Asnièrs-sur-Seine, France; Dilution 1/100) for 1 hour at 37° C. with 50 microliter per well. Wells were then washed three times with 100 microliter/well using TBS-T. Residual peroxidase activity was detected by measuring peroxidase-mediated hydrolysis of 3,3′,5,5′-tetramethylbenzidine. OD-values were plotted against antithrombin concentrations (FIG. 1).

EC50 (read off the curve) [nM]	Binder
~600	B1
~500	B2
~700	B4

What follows are binders tested against T6, murine antithrombin in the same assay as above.
Procedure: as §4

EC50 (read off the curve) [nM]	Binder
~500	B1
~400	B5
~600	B4

— US20190100602A1 (INSERM INSTITUT NATIONAL DE LA SANT ET DE LA RECHERCHE M …, published 2019)
